Common to all, as to conditions: both partners purified
Test [1] concerns the target T1, PARylated (activated) human PARP1 used in HDX-MS (human, UniProt P09874 1-1014, poly(ADP-ribose) (PARylated; sites not stated)).
T1 construct: human PARP1; also called PARylated PARP1
In words: HDX-MS; ALC1^fl with and without PARylated or non-PARylated PARP1; 50 mM Tris, 50 mM NaCl, 5 mM MgCl2, 1.5 μM 239 bp dsDNA, 1 mM ATP, 1 mM TCEP pH 7.9, ~70% D2O, 23°C, five time points.

For test [2], the target named is T2, ALC1^cat (ATPase motor of human ALC1, residues 16-612), 6xHis-tagged (human, UniProt Q86WJ1 16-612).
T2 construct: human ALC1 (Amplified in liver cancer 1; CHD1L), residues 16-612; Made by PCR-based mutagenesis of the ALC1^fl construct (pNIC-CH2); also called ALC1/CHD1L variant that lacks the macro domain; source: E. coli Rosetta 2 (DE3), purified (HisTrap, Q HP, Superdex 200)
T2 sequence (looked up): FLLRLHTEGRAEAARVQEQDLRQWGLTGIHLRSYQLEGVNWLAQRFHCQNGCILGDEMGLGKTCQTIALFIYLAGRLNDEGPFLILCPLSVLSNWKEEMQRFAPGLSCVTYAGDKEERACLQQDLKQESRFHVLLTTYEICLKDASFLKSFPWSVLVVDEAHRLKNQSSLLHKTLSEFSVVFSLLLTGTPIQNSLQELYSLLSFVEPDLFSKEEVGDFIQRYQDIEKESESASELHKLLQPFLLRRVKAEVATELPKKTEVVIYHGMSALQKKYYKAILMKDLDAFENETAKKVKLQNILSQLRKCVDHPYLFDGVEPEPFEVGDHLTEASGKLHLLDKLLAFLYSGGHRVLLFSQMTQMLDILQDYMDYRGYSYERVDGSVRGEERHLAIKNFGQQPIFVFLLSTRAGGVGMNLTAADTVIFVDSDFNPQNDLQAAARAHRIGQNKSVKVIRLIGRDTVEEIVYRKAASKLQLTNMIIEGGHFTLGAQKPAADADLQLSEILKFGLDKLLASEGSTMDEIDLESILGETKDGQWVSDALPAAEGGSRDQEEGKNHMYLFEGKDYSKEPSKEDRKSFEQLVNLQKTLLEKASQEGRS
In words: SEC; 7 nmol each of ALC1^cat and ALC1^macro mixed, 10 min on ice, Superdex 200 10/300 GL, 20 mM MES pH 6.5, 300 mM NaCl, 10% glycerol, 0.5 mM TCEP; peak fractions on SDS-PAGE.

The target in test [3] is T3, PARylated GST-tagged human PARP1 (human, UniProt P09874 1-1014, poly(ADP-ribose) (PARylated by incubation with dsDNA and NAD+; sites not stated)).
T3 construct: human PARP1; also called PARylated PARP1; GST-tagged PARP1 (BPS Bioscience); source: bought: BPS Bioscience; incubated with 230 bp dsDNA and NAD+ for 5 min at 37°C
T3 sequence (P09874 whole entry): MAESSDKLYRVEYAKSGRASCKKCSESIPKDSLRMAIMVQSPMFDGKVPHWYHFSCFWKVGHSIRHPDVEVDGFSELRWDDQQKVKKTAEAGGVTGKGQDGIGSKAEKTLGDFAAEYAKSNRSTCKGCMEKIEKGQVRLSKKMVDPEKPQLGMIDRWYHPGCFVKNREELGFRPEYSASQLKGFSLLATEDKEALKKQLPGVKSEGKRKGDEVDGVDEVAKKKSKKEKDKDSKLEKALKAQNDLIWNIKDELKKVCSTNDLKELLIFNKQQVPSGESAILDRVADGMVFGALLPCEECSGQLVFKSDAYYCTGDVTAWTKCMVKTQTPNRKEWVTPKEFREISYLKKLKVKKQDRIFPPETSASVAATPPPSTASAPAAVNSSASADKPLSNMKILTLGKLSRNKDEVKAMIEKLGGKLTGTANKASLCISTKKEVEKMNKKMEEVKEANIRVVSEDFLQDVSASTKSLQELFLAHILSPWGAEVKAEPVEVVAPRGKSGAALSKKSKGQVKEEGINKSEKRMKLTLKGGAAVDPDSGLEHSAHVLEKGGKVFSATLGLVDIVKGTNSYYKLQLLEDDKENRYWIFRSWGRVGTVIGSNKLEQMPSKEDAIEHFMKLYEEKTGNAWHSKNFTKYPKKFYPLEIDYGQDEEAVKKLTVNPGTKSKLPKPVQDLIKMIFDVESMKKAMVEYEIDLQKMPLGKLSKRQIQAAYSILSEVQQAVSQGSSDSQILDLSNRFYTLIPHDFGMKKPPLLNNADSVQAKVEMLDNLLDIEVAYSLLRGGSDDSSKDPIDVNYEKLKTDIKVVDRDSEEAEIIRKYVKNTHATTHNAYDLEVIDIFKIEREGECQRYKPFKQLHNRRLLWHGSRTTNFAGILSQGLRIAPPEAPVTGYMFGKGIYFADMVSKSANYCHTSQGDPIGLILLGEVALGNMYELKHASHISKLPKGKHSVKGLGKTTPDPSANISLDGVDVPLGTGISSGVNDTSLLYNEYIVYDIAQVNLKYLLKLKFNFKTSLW
In words: pull-down; 5 μM 6xHis-ALC1^cat and 5 μM ALC1^macroΔ6xHis, Ni-NTA agarose, 1 h at 4°C, 20 mM HEPES pH 7.5, 300 mM NaCl, 10% glycerol, 20 mM imidazole, 0.5 mM TCEP; where indicated 5 μM GST-PARP1 pre-incubated with dsDNA and NAD+; eluate on SDS-PAGE.

Test [4] has as its target T2, ALC1^cat (ATPase motor of human ALC1, …). Described as above.

T1 sequence (P09874 whole entry): as above

B1: ALC1^fl (essentially full-length human ALC1, residues 16-879), 6xHis-tagged (enzyme, UniProt Q86WJ1 16-879, looked up)
chain: FLLRLHTEGRAEAARVQEQDLRQWGLTGIHLRSYQLEGVNWLAQRFHCQNGCILGDEMGLGKTCQTIALFIYLAGRLNDEGPFLILCPLSVLSNWKEEMQRFAPGLSCVTYAGDKEERACLQQDLKQESRFHVLLTTYEICLKDASFLKSFPWSVLVVDEAHRLKNQSSLLHKTLSEFSVVFSLLLTGTPIQNSLQELYSLLSFVEPDLFSKEEVGDFIQRYQDIEKESESASELHKLLQPFLLRRVKAEVATELPKKTEVVIYHGMSALQKKYYKAILMKDLDAFENETAKKVKLQNILSQLRKCVDHPYLFDGVEPEPFEVGDHLTEASGKLHLLDKLLAFLYSGGHRVLLFSQMTQMLDILQDYMDYRGYSYERVDGSVRGEERHLAIKNFGQQPIFVFLLSTRAGGVGMNLTAADTVIFVDSDFNPQNDLQAAARAHRIGQNKSVKVIRLIGRDTVEEIVYRKAASKLQLTNMIIEGGHFTLGAQKPAADADLQLSEILKFGLDKLLASEGSTMDEIDLESILGETKDGQWVSDALPAAEGGSRDQEEGKNHMYLFEGKDYSKEPSKEDRKSFEQLVNLQKTLLEKASQEGRSLRNKGSVLIPGLVEGSTKRKRVLSPEELEDRQKKRQEAAAKRRRLIEEKKRQKEEAEHKKKMAWWESNNYQSFCLPSEESEPEDLENGEESSAELDYQDPDATSLKYVSGDVTHPQAGAEDALIVHCVDDSGHWGRGGLFTALEKRSAEPRKIYELAGKMKDLSLGGVLLFPVDDKESRNKGQDLLALIVAQHRDRSNVLSGIKMAALEEGLKKIFLAAKKKKASVHLPRIGHATKGFNWYGTERLIRKHLAARGIPTYIYYFPRSK
notes: human ALC1 (CHD1L), residues 16-879; also called Human ALC1^fl (16-879) pNIC-CH2; source: E. coli Rosetta 2 (DE3), purified (HisTrap, Q HP/SP HP, Superdex 200)
Turning to B1, the binding result in test [1] is given as “binds”.

B2: ALC1^macro (macro domain construct of human ALC1, residues 613-879), 6xHis-tagged (domain or fragment, UniProt Q86WJ1 613-879, looked up)
chain: LRNKGSVLIPGLVEGSTKRKRVLSPEELEDRQKKRQEAAAKRRRLIEEKKRQKEEAEHKKKMAWWESNNYQSFCLPSEESEPEDLENGEESSAELDYQDPDATSLKYVSGDVTHPQAGAEDALIVHCVDDSGHWGRGGLFTALEKRSAEPRKIYELAGKMKDLSLGGVLLFPVDDKESRNKGQDLLALIVAQHRDRSNVLSGIKMAALEEGLKKIFLAAKKKKASVHLPRIGHATKGFNWYGTERLIRKHLAARGIPTYIYYFPRSK
notes: human ALC1 (CHD1L), residues 613-879 (linker and macro domain); Made from the ALC1^fl construct (pNIC-CH2); no cleavage of the tag is described for this version; source: E. coli Rosetta 2 (DE3), purified (HisTrap, Q HP/SP HP, Superdex 200)
Consider B2, for which the binding result in test [2] is on record as “binds”.

B3: ALC1^macroΔ6xHis (macro domain construct of human ALC1, residues 613-879, 6xHis tag removed by TEV) (domain or fragment, UniProt Q86WJ1 613-879, looked up)
chain: B2 chain
notes: human ALC1 (CHD1L), residues 613-879; A TEV-cleavage site was added to the ALC1^macro construct; also called ALC1^macro6xΔHis; non-tagged macro domain; source: E. coli Rosetta 2 (DE3), purified; TEV cleavage of the 6xHis tag, second HisTrap flow-through
For B3, the binding result in test [3] and in test [4] was “binds” in each case.

These data come from paper PMC5745148, “Mechanistic Insights into Autoinhibition of the Oncogenic Chromatin Remodeler ALC1” (Molecular Cell, 2017).
